Reference: patent US20100098693A1 (published 2010)

What was measured:
[1] = biological target: T1, human insulin receptor extracellular domain (HIR ECD), lectin affinity purified from transfected CHO cells (human, UniProt P06213 28-956, limits assumed); experiment: ELISA, HIR ECD plated, detection with biotinylated anti-human IgG; printed as ED50 (assay of FIG. 4)
T1 construct: extracellular domain; Secreted ECD purified on a wheat germ agglutinin column
Procedure: (§1) The affinity of the HIRMAb-PON1 fusion protein for the HIR extracellular domain (ECD) was determined with an ELISA using the lectin affinity purified HIR ECD. Chinese hamster ovary (CHO) cells permanently transfected with the HIR ECD were grown in serum free media, and the HIR ECD was purified with a wheat germ agglutinin affinity column. The HIR ECD (0.2 ug/well) was plated on high binding 96-well plates, and the binding of the HIRMAb, or the HIRMAb-PON1 fusion protein to the HIR ECD was detected with a biotinylated goat anti-human IgG (H+L) antibody (0.3 μg/well), and the avidin-biotinylated peroxidase detection system.

[2] = biological target: T1, human insulin receptor extracellular …; experiment: ELISA, HIR ECD plated; printed as ED50 (second assay, run with the Gln-192 allozyme)
Procedure: as §1

[3] = biological target: T1, human insulin receptor extracellular …; experiment: ELISA, HIR ECD plated, detection with biotinylated anti-human IgG; printed as ED50 (assay of FIG. 4, Arg-192 allozyme)
Procedure: as §1

[4] = biological target: T1, human insulin receptor extracellular …; experiment: ELISA, HIR ECD plated; printed as ED50 (second assay, Gln-192 allozyme)
Procedure: as §1

B1: chimeric HIRMAb (chimeric monoclonal antibody to the human insulin receptor) (antibody, human IgG1, kappa)
heavy: not shown
light: DIQMTQSPSSLSASLGERVSLTCRASQDIGGNLYWLQQGPDGTIKRLIYATSSLDSGVPKRFSGSRSGSDYSLTISSLESEDFVDYYCLQYSSSPWTFGGGTKMEIKRTVAAPSVFIFPPSDEQLKSGTASVVCLLNNFYPREAKVQWKVDNALQSGNSQESVTEQDSKDSTYSLSSTLTLSKADYEKHKVYACEVTHQGLSSPVTKSFNRGEC
notes: Chimeric mouse/human IgG1 kappa; also called engineered HIRMAb
B1 was tested, and the EC50 [1] was 0.55 nM and the EC50 [2] was 0.48 nM.

B2: HIRMAb-PON1 fusion protein, Arg-192 allozyme (PON1 fused to the carboxyl terminus of the HIRMAb heavy chain) (antibody)
heavy: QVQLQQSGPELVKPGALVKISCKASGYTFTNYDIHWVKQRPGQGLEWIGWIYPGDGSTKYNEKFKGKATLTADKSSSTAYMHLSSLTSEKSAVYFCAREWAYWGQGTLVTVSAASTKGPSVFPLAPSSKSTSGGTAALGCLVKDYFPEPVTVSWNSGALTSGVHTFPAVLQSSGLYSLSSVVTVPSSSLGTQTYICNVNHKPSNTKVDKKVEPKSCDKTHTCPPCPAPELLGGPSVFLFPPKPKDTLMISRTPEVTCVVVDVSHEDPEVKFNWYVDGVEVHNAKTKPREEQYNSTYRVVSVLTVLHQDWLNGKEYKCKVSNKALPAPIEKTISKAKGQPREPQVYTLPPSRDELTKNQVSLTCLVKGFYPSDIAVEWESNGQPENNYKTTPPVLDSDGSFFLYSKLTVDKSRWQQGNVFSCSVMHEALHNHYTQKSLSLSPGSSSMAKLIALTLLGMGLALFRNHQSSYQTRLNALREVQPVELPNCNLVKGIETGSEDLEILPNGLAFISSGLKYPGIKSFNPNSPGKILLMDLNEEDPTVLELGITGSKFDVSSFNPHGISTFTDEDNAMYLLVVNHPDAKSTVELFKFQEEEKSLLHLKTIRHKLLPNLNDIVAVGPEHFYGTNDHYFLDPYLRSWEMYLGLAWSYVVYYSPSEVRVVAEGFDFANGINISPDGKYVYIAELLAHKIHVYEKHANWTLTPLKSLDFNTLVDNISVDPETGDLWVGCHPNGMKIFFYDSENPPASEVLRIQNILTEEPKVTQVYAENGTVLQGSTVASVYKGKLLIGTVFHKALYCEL
light: B1 light
notes: IgG-enzyme fusion antibody
B2 gave an EC50 [3] of 1.1 nM.

B3: HIRMAb-PON1 fusion protein, Gln-192 allozyme (antibody, human IgG1, kappa)
heavy: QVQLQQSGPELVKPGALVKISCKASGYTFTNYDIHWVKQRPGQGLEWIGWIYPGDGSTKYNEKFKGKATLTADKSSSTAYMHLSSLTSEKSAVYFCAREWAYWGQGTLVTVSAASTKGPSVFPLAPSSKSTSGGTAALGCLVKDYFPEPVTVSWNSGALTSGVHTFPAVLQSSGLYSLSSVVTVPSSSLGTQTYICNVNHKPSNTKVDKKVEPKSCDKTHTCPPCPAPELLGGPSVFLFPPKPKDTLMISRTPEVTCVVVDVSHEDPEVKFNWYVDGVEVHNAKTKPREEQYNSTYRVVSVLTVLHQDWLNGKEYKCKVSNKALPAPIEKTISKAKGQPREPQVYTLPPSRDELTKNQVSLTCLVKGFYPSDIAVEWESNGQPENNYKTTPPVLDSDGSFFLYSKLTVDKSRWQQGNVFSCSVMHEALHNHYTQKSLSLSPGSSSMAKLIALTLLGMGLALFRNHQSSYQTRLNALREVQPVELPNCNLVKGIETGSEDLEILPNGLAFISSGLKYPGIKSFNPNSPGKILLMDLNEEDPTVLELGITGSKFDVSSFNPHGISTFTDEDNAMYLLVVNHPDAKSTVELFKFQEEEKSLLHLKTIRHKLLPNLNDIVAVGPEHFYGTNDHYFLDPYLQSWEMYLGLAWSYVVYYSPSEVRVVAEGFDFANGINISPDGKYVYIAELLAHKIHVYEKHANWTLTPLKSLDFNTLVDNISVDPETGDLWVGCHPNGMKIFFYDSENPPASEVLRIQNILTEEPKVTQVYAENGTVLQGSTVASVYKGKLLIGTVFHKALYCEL
light: B1 light
Work on B3 yielded an EC50 [4] of 0.96 nM.
